The target of the data set is T1, C-terminal recombinant protein of F3374 (437-730 amino acids, His-tag).
T1 chain: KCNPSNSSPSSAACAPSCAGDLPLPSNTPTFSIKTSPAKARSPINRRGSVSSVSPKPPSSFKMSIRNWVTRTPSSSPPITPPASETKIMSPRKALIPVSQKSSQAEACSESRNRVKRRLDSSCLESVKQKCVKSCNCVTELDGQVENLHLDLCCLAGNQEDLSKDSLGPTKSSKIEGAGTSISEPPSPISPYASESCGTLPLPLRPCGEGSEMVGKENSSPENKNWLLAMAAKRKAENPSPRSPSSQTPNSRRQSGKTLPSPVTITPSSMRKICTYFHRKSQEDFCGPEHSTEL

B1: full-length recombinant protein of AURKB (Upstate) (protein)
chain: MAQKENSYPWPYGRQTAPSGLSTLPQRVLRKEPVTPSALVLMSRSNVQPTAAPGQKVMENSSGTPDILTRHFTIDDFEIGRPLGKGKFGNVYLAREKKSHFIVALKVLFKSQIEKEGVEHQLRREIEIQAHLHHPNILRLYNYFYDRRRIYLILEYAPRGELYKELQKSCTFDEQRTATIMEELADALMYCHGKKVIHRDIKPENLLLGLKGELKIADFGWSVHAPSLRRKTMCGTLDYLPPEMIEGRMHNEKVDLWCIGVLCYELLVGNPPFESASHNETYRRIVKVDLKFPASVPMGAQDLISKLLRHNPSERLPLAQVSAHPWVRANSRRVLPPSALQSVA
As to B1, the “in vitro kinase assay (32P, autoradiography)” value is “found phosphorylation of the F3374 protein by AURKB in vitro”.
